Positions count from the first letter of the chain named.
T1: Arl2^Q70L-Venus (Drosophila melanogaster, UniProt Q06849 1-184, Q70L)
T1 sequence (looked up): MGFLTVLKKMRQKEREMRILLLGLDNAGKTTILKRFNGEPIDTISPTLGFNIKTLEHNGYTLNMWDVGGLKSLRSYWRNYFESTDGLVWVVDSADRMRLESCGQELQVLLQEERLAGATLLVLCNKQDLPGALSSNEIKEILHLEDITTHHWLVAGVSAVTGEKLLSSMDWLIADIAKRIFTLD

T2: Arl2^T30N-Venus (Drosophila melanogaster, UniProt Q06849 1-184, T30N)
T2 sequence (looked up): T1 sequence (looked up) with T30N, L70Q

B1: HA-TBCC (natural protein, Drosophila melanogaster, UniProt Q7KU40 1-355, looked up)
chain: MEGDAENRKDQILERLNKRNKDRQNYLDVKSELRSKETVQNEGVDYFYQTFSQKTMDIEQRLKDVQCGDGQPTDLARNFADITVEIQDLQRYLTASTMFLPDFKIKSCQNILNTLTAVSDETRQRLLPKKKFGFSGKKTVTKPKVPPNKDIVDAKLSKVPEKLGSNFTWTIANRTNEHIVLDSAKVNGQDITISKLNHCLVELQGHPGSVQVSRASKCTLLCGPIARSFFAENLEDCTLSIACQQLRLHSSRSIRIYMHVTCRAIIEDCKSIEIGEYNYDYSKLEADYLASGLNKAQNNYTDVADFNWLSPDVPSPNWSLLKDYPDPNWNALRRDFIANNHNSELKQDVKDISII
B2: HA-TBCE (natural protein, Drosophila melanogaster, UniProt A1Z6J5 1-523, looked up)
chain: MVGIIDEVQLFYPLGTRIKIGDNYGTVRYVGEVSGHMGSWLGIEWDDGLRGKHNGIVDGKRYFQTQTPTGGSFIRPGKVGPCATLEDAARERYLNYDSSNVDESLIREAQASLQASLFEVVGMDKIARKQSKFEQLEEVSVDQTPVNAAGYLKELTHLTTLNVSHTLIWNWEIVASIAQQLPSLTNLNLSSNRLVLPTSSQITELEPSFRQLKRINLRSCGFSDWKDVMHTALLWPNILSLGLQENSLGQLAEVDRTKIFKQLHELDLHRTNIMDFDQVTKLGNLTTLRLLNIMENGIEEIKLPDCDSQEKLNIFVSLEQLNLLHNPIWNEADAFNELDKLPQLKRLSKTPHLKSNFDEMFSKAVASIASLQFINKAEVTAEQRRGAEYDIWKKYALDWMQATQGGTDSLREFCRRHRTYPLLVKKYGSPADFVPRSQAKQSNLINVSIRHQLTGETWEKKVPRMITVQTLQGLVMKRFRLSGDVPQLCYVDALHPDLVVPLDNNAKTLDFYSVQEHDTVLVQ

Experiments:
Arl2^Q70L-Venus = biological target: T1, Arl2^Q70L-Venus; experiment: co-IP
Arl2^T30N-Venus = biological target: T2, Arl2^T30N-Venus; experiment: co-IP

| Binder | fold amount co-precipitated, against Arl2^T30N-Venus (Arl2^Q70L-Venus) [fold] | fold amount co-precipitated, against Arl2^Q70L-Venus (Arl2^T30N-Venus) [fold] |
| --- | --- | --- |
| B1 | ~9.6 |  |
| B2 |  | ~3.1 |
